Experimental data: paper PMC8961635
One block for each substance: values may come before it.

How the values were obtained:
[1] = target: LarE from Methanococcus maripaludis (Methanococcus maripaludis); test: SEC-MALS; holo-form ([4Fe-4S] cluster reconstituted anaerobically; analysed aerobically immediately after thawing); 100 µL at ~2 mg·mL^−1 injected on Superdex 200 increase 10/300 GL, 0.5 mL·min^−1, 25 mM HEPES pH 7.5, 300 mM NaCl, 5 mM DTT; monomer or dimer
[2] = target: LarE from Methanococcus maripaludis (Methanococcus maripaludis); test: SEC-MALS; apo-form (as-purified protein, <5% cluster); 100 µL at ~2 mg·mL^−1 injected on Superdex 200 increase 10/300 GL, 0.5 mL·min^−1, 25 mM HEPES pH 7.5, 300 mM NaCl, 5 mM DTT; monomer or dimer
human mitoNEET (human) = test: SEC-MALS; holo-form ([2Fe-2S] cluster bound); 100 µL at ~2 mg·mL^−1 injected on Superdex 200 increase 10/300 GL, 0.5 mL·min^−1, 50 mM sodium phosphate pH 7.5, 50 mM NaCl, 10 mM DTT; monomer or dimer
[3] = target: CyuA from Methanococcus maripaludis (Methanococcus maripaludis); test: SEC-MALS; holo-form ([4Fe-4S] cluster reconstituted anaerobically; analysed aerobically immediately after thawing); 100 µL at ~2 mg·mL^−1 injected on Superdex 200 increase 10/300 GL, 0.5 mL·min^−1, 25 mM HEPES pH 7.5, 300 mM NaCl, 5 mM DTT; monomer or dimer
[4] = target: CyuA from Methanococcus maripaludis (Methanococcus maripaludis); test: SEC-MALS; apo-form (as-purified protein, <5% cluster); 100 µL at ~2 mg·mL^−1 injected on Superdex 200 increase 10/300 GL, 0.5 mL·min^−1, 25 mM HEPES pH 7.5, 300 mM NaCl, 5 mM DTT; monomer or dimer
human CISD2 (human) = test: SEC-MALS; holo-form ([2Fe-2S] cluster bound); 100 µL at ~2 mg·mL^−1 injected on Superdex 200 increase 10/300 GL, 0.5 mL·min^−1, 50 mM sodium phosphate pH 7.5, 50 mM NaCl, 10 mM DTT; monomer or dimer

stoichiometry N [1]: 2
stoichiometry N [2]: 2
Substance: LarE from Methanococcus maripaludis (enzyme)

stoichiometry N (human mitoNEET (human)): 2
Substance: human mitoNEET (domain or fragment)

stoichiometry N [3]: 2
stoichiometry N [4]: 2
Substance: CyuA from Methanococcus maripaludis (enzyme)

stoichiometry N (human CISD2 (human)): 2
Substance: human CISD2 (domain or fragment)
